The source of these data is the DeepSol protein solubility set.

This data set can be described thus: soluble on expression in E. coli; label from the status in PepcDB or PDB records.
In the case of “MGSDKIHHHHHHMNLWTSTPPMLRQISVRAAMDILLHQGPTSRADLAKKTGLSKQTMSEVIRTLETAGWVRVKGIVSGKVGRSAVTYEVAPDAGFVIGMDIGATTIRVAIADIAGTIVHEVEKSAGEHGGEALLAHVSGVVEASLKKARVSRSKVLLAAVAMPGVIDPETGRLSLAPNLSEIGSLDVIKALQGIFRCDVIIENDVNAAVIGESWKGSGIGLDSVAFVSLGTGIGLGVLFNGKLMRGAKGAAGEIGYLPFGADPYNSESLERGALECAIGARGILERYGNPGDGGMTVRDILEAAEKGDAKALATVQETARLAALLVVSVHAMLDPGKIILGGNVGRNPLMVRMVKEALATSTRSSISLEASTLASRATLVGAVAIALNQLHNALFSPQDLPSEMRLPA”, the “soluble on expression in E. coli” value is reported as “not soluble”.
The result for “MGSDKIHHHHHHMRGTIMDDLNDLYYFVKVVEHGGFTQAGRALGVPKSTLSRRIAALEAQYDVRLLQRTTRHFTVTETGREFYDRCLGVLVEAEAAREVIERKHAEPQGIVSLSCPTALLEYRVSGLVARFMAIHPKVQVHLEATNRRVDLLSEGIDLALRVRFPPLEDSGLVMRVLGDSPQRLVAAPHLLGGRDLPTSPDELAGVPSVDWGPPRHHLWQLVGPQGVEAQLRHHPRFITDDMHALRDAALHGVGIAQLPCMVVEDDLRDGTLVDVLPGWVPKGGVIHAVFPSRRGLLPRVRLLIDFLAAHIQKD” reads “not soluble”.
Consider “MGSDKIHHHHHHMSAELPLVFSVTSGKGGVGKTNMSVNIACCLSRMGKRVVLLDADLGLANVDVVLGLAPPRNLFHLFHEGADLGSILCEMPYGFRILPASSGVGEMLSLSTGQKLDLLEAMDVLEDSVDYLLVDTGAGINDNVLYFNIAAQERIVVLTPEPTSLTDAYALIKVMKLNHGVEHFKVLVNMAGDMKAAREVFSRLYKACDHFLSGVSLDLLGYVPRDRTVRRAVVEQTPFCVLDSRSPASLAVQKVAETVQTWDVSASLDGNIKFFWKKLLFR”, for which the “soluble on expression in E. coli” value is listed as “not soluble”.
For “EKMTRDEIAYMLTNSEETLDADEIEMLQGVFSLDELMAREVMVPRTDAFMVDIQDDSQAIIQSILKQNYSRIPVYDGDKDNVIGIIHTKSLLKAGFVDGFDNIVWKRILQDPLFVPETIFVDDLLKELRNTQRQMAILLDEYGGMAGLVTLEDLLEEIVGEID”, the “soluble on expression in E. coli” value is “not soluble”.
The value for “MTASSQAPLKYLQAYPQALQDQVHQLIAQDRLADYLQQRYPAGHQIQSDKALYAYALALKQDHLRNAPAIKKVLFDNRLDLTHRALGLHTKISRVQGGKLKASNEIRVAALFKEAPAEFLKMIVVHELAHFRESDHNKAFYQLCEHMLPGYHQLEFDLRVYLTYNELRASSGKFLEHHHHHH” was “soluble”.
Take “MTSSFLYVLFTVSCLAALVSISEACFASGICGGGCPPPPPPMCSGGCGGGYSCGSYGCYRARARGSKTLSFKKPSEMNPDERFMKCCEDRNLPDSCLSKCSYRSYTKSALQSMYFKQDSCPMQAAADIQFCAAQGKDHTACCARNAVGTTLAGNKCFTFCDQRPGNVTQLDMSYLACYDRFENMKACFYQKASEASDPIVSFSNDRDNNREFAVDTETAEFRRPSQEHFRAPTSPQLPQNPLFAVQNLLARTFGQ”: the “soluble on expression in E. coli” value is given as “not soluble”.
As for “MGSDKIHHHHHHMNGIGATPYSESQKFHIAAIILAAGFSLRMKSFKPLLPLGSASVIETAIQSFRKAGFMDIRVVLGHKAGELLPICDALGVQPILNEDYAEGMFSSVKAGVKSLGREVDGFFLLPADNPLIQADTLQRLYEGFNLGPGGIVYPVCQGKRGHPPLISRSYRDSILSWRGEGGLRALLEHYQADALEVGTEDQGVLLDMDTPEDYRTLLKHYGCAPTPTEFECYELLKGNNTPDQVIKHCETVARLSVFLGEQLSEAGLHLNRELLRTSALLHDIARLKPNHPQEGAKLTAAYPEVSAIIAAHMDCPWEPSQPLTEQEIVYLADKLVAKERIVSLQERFKGSVERHQNEPEVLEHVYRRFGQAYRIHDRVEEILGKSVQTLIKSNLGSDVHG”, the “soluble on expression in E. coli” value is recorded as “not soluble”.
For the sequence “MVTEAMKAKAEVYHGDKTCREKFGSLLSEIGLPNRLLSNKEIKECGYVKDTGFVWLKHKEKKKEDQKRRYQDLLRFDNVVVCFEDEVTAYFEPNRIKKLTGVKAKEFMVWISLGEIQVNRSSGLITFKTEVGLLSKSLPLSVFEDVHGDDHDLKEKPKKELKLNKTKIYLY”, the “soluble on expression in E. coli” value is reported as “not soluble”.
On to “MSSQTILSVNNLSVSFTTNDGIVDAVKNVSFELQAGETLSIVGESGSGKSVSTNALMTLLPDNAIVHPDSSIMFEGESILDKTERQMQRIRGDRIGMIFQEPMTSLNPYMRVGIQVAEAMMCHRSVNQRKAKERVLELFDLVHLPNPQQAYDKYPHEFSGGQLQRIMIAMALINEPDILIADEPTTALDVTVQAEVLLLIKEIQAKMGMAILFITHDLGVVKHFADRVLVMCKGEVVEEGITEHLFSEPQHEYTKMLINSIPKGSKTPVDEKASELLNAEDIR”, for which the “soluble on expression in E. coli” value is reported as “not soluble”.
On to “MVGPARPQIVLFGSSIVQMSFGHGGWGAILSEVYARKADIILRGYYGWNSSRALEVVDQVFPKDAAVQPSLVIVYFGGNDSMAPHSSGLGPHVPLTEYVDNMKKIALHLQSLSDFTRIIFLSSPPVDEAKVRQNQSPYLSEVIRTNDLCKTYSDACVELCQELGLEVVDLFSTFQKADDWKTVCFTDGIHLSAQGSKIVAGEILRVVKEAEWHPSLHWKSMPTEFADDSPYDLVSADGKQTVNSSEWTYFWEEQWD”, for which the “soluble on expression in E. coli” value is “soluble”.
As to “PPCDSIVVAYYFCGEPIPYETLVRGRAVTLGQFKELLTKKGSYRYYFKKVSDEFDCGVVFEEVREDEAILPVFEEKIIGKVEKVD”, the “soluble on expression in E. coli” value was “soluble”.
For the sequence “DAYIGVLIDDLVTKGTNEPYRLLTSRAEYRLLLRHDNADLRLTEIGHRIGLISDERYAAFEKKKAAIEAEKKRLHSVIIKPSPENQEYIRSLGGSELKDGVRGTDLMKRPEMNYETVTKLAPPEVPVPQDVAEQVEIQVKYEGYIEKSLQQVEKLKKMENKKIPDRIDYDAIKGIATEARQKLKNVRPLSVAQASRISGVNPADISILLVYLE”, the “soluble on expression in E. coli” value was “not soluble”.
For “MSGEDDYNSDDEANKNLSKKELQELKRKQQKSKKKKESKKRAKATKQAEIETREEPKKEEENGDDLDVEIDYIGETIEIEPDNPHAQYFSAIFDAFKISTDSEDGFSYGHHVSKGEKKDDLGKVGQAERIIQEEMEERAKENTEEKLSRRKLRISLQPSIAKLKETTLRADVVEWADVTSRDPYLLVAMKSYRNSVPVPRHWNAKRKYLAGKRGFERPPFELPDFIKRTGIQDMREALLEKEESQSLKSKMRERARPKLGKIDIDYQKLHDAFFKWQTKPAMTKMGELYYEGKEMEAMMRDKKPGEMSDELRIALGMPIGSNAFKFPPPWLIAMQRYGPPPSFPHIKIPGLNAPIPEGCAFGYHAGGWGKPPVDEYGHPLYGDVFGLAAPAFEPEDESQIERRYWGEIGSDESSDEEESEEEEHADDDDADVEGGFQTPAPVEGMITPSGMTTGITGIETPDTIELRKGKESSVLGTDTPAAAYHIIPEKKNERIGGQMMASSHTYDLSKKHAVRDDGVQISLDPESIDMDEQGLAARYEEQLRKQKHRDDDDEDREDLTDMVAEHAAKQNRKRKVQDDKKNKTSSSSSSGSSGKKHKDFKF”, the “soluble on expression in E. coli” value is “not soluble”.
With “MSDIAPAAHSPYIPPTPEVGLPLWLLAELTYRCPLQCPYCSNPLDFARQGQELTTEQWFKVMQEAREMGAAQIGFSGGEPLVRQDLAELIAEARRLGFYTNLITSGIGLTEEKIIAFKKAGLDHIQISFQASDEQVNNMLAGSKKAFAQKLEMAKAVKKHGYPMVLNFVTHRHNIDRIDKIIELCLALEADFVELATCQFYGWAHLNRVGLLPTKDQLVRAEAVTNEYRDQLAAQDHPCKLIFVTPDYYEERPKACMNGWGNIFLTVTPDGTALPCHGARQMPIQFPNVREHSMQHIWYDSFGFNRFRGYDWMPEPCRSCDEKEKDFGGCRCQAFMLTGDAANADPVCSKSYHHGIITQARDESETATQTIEELAFRNDRNSRLIAKSS”, the “soluble on expression in E. coli” value is “not soluble”.
Consider “SVFKFIDLPQEEPRPSGGGKVTDLVLDNPHAQDCWPNQGHMDVQGLTVKYTEAGRSVLQNLSFTVEAGQSVGVLGRTGSGKSTLLSALLRLASTDGEISIDGVSWNSVTLQTWRKAFGVVPQKIFILTGTFRMNLDPHACHSDEELWRVAEEVGLKSVIEQFPDKLDFQLEDGGYVLSNGHKQLMCLARSILSKARILLLDEPSAYLDPITLQVLRKTLKQSFSNCTVILSEHRVEPLLECQSFLMIEGSSMKRYDSIQKLLNETSHLKQAISAAERLKLFPLHRLNSSKRPPQSQQPKITALQEEAEDEVQDTRL”, for which the “soluble on expression in E. coli” value is reported as “not soluble”.
The result for “MSLSEVDIAKADPAAASHPLLLNGDATVAQKNPGSVAENNLCSQYEEKVRPCIDLIDSLRALGVEQDLALPAIAVIGDQSSGKSSVLEALSGVALPRGSGIVTRCPLVLKLKKLVNEDKWRGKVSYQDYEIEISDASEVEKEINKAQNAIAGEGMGISHELITLEISSRDVPDLTLIDLPGITRVAVGNQPADIGYKIKTLIKKYIQRQETISLVVVPSNVDIATTEALSMAQEVDPEGDRTIGILTKPDLVDKGTEDKVVDVVRNLVFHLKKGYMIVKCRGQQEIQDQLSLSEALQREKIFFENHPYFRDLLEEGKATVPCLAEKLTSELITHICKSLPLLENQIKETHKRITEELQKYGVDIPEDENEKMFFLIDKINAFNQDITALMQGEETVGEEDIRLFTRLRHEFHKWSTIIENNFQEGHKILSRKIQKFENQYRGRELPGFVNYRTFETIVKQQIKALEEPAVDMLHTVTDMVRLAFTDVSIKNFEEFFNLHRTAKSKIEDIRAEQEREGEKLIRLHFQMEQIVYCQDQVYRGALQKVREKELEEEKKKKSWDFGAFQSSSATDSSMEEIFQHLMAYHQEASKRISSHIPLIIQFFMLQTYGQQLQKAMLQLLQDKDTYSWLLKERSDTSDKRKFLKERLARLTQARRRLAQFPGEGHHHHHH” reads “soluble”; that for “MAHHHHHHGHHHQLENLYFQGEETAVPENSGANTELVSGESEHSTNEADKQNEGEHARENKLEKAEGVATASETASPASNEAATTETAEAASAAKPEEKASEVVAETPSAEAKPKSDKETEAKPEATNQGDESKPAAEANKTEKEVQPDVPKNTEKTLKPKEIKFNSWEELLKWEPGAREDDAINRGSVVLASRRTGHLVNEKASKEAKVQALSNTNSKAKDHASVGGEEFKAYAFDYWQYLDSMVFWEGLVPTPDVIDAGHRNGVPVYGTLFFNWSNSIADQERFAEALKQDADGSFPIARKLVDMAKYYGYDGYFINQETTGDLVKPLGEKMRQFMLYSKEYAAKVNHPIKYSWYDAMTYNYGRYHQDGLGEYNYQFMQPEGDKVPADNFFANFNWDKAKNDYTIATANWIGRNPYDVFAGLELQQGGSYKTKVKWNDILDENGKLRLSLGLFAPDTITSLGKTGEDYHKNEDIFFTGYQGDPTGQKPGDKDWYGIANLVADRTPAVGNTFTTSFNTGHGKKWFVDGKVSKDSEWNYRSVSGVLPTWRWWQTSTGEKLRAEYDFTDAYNGGNSLKFSGDVAGKTDQDVRLYSTKLEVTEKTKLRVAHKGGKGSKVYMAFSTTPDYKFDDADAWKELTLSDNWTNEEFDLSSLAGKTIYAVKLFFEHEGAVKDYQFNLGQLTISDNHQEPQSPTSFSVVKQSLKNAQEAEAVVQFKGNKDADFYEVYEKDGDSWKLLTGSSSTTIYLPKVSRSASAQGTTQELKVVAVGKNGVRSEAATTTFDWGMTVKDTSLPKPLAENIVPGATVIDSTFPKTEGGEGIEGMLNGTITSLSDKWSSAQLSGSVDIRLTKSRTVVRWVMDHAGAGGESVNDGLMNTKDFDLYYKDADGEWKLAKEVRGNKAHVTDITLDKPITAQDWRLNVVTSDNGTPWKAIRI”, “soluble”; that for “MFSIPPLPWGYDGLAAKGLSKQQVTLHYDKHHQGYVTKLNAAAQTNSALATKSIEEIIRTEKGPIFNLAAQIFNHTFYWESMCPNGGGEPTGKVADEINASFGSFAKFKEEFTNVAVGHFGSGWAWLVKDTNSGKLKVYQTHDAGCPLTEPNLKPLLTCDVWEHAYYVDYKNDRAAYVQTFWNVVNWKNVERQL”, “soluble”.
